Blank lines part the entries; values can stand above or below the binder they belong to.
Molecular target: T1, MDNA132LR-Fc (1:1 KIH) (Homo sapiens (Human), UniProt P0DOX5 223-448 = IgG part)
T1 construct: also called MDNA132^L39/R111-Fc (1:1 KIH); MDNA132-Fc
Assay: SPR, construct captured on anti-human IgG (Fc) antibody on a CM5 chip, human receptor as analyte

- Kd: 3.6 nM
B1: human IL-13Rα2 (receptor, UniProt Q14627 27-343, looked up)
chain: DTEIKVNPPQDFEIVDPGYLGYLYLQWQPPLSLDHFKECTVEYELKYRNIGSETWKTIITKNLHYKDGFDLNKGIEAKIHTLLPWQCTNGSEVQSSWAETTYWISPQGIPETKVQDMDCVYYNWQYLLCSWKPGIGVLLDTNYNLFYWYEGLDHALQCVDYIKADGQNIGCRFPYLEASDYKDFYICVNGSSENKPIRSSYFTFQLQNIVKPLPPVYLTFTRESSCEIKLKWSIPLGPIPARCFDYEIEIREDDTTLVTATVENETYTLKTTNETRQLCFVVRSKVNIYCSDDGIWSEWSDKQCWEGEDLSKKTLLR
notes: also called Human IL-13 R alpha 2 Protein; IL-13 decoy receptor

- binding result: no binding (tested: 1000 nM)
B2: human IL-13Rα1 (receptor)
chain: GGGGAAPTETQPPVTNLSVSVENLCTVIWTWNPPEGASSNCSLWYFSHFGDKQDKKIAPETRRSIEVPLNERICLQVGSQCSTNESEKPSILVEKCISPPEGDPESAVTELQCIWHNLSYMKCSWLPGRNTSPDTNYTLYYWHRSLEKIHQCENIFREGQYFGCSFDLTKVKDSSFEQHSVQIMVKDNAGKIKPSFNIVPLTSRVKPDPPHIKNLSFHNDDLYVQWENPQNFISRCLFYEVEVNNSQTETHNVFYVQEAKCENPEFERNVENTSCFMVPGVLPDTLNTVRIRVKTNKLCYEDDKLWSNWSQEMSIGKKRNST
notes: also called Human IL-13 R alpha 1 Protein; IL-13 functional receptor
